Read-outs that look alike come from different tables or passages of the source.
What was measured:
[1] = biological target: T1, HLA A2.1 molecule (Homo sapiens, UniProt P04439, D140Y/D185E/D98H/E176V/E277Q/G131W/G231S/I119V/I121R/I166T/I218V/L300P/L318F/N151K/N90K/P208A/P217A/Q86G/Q94H/R138H/R169H/T345S); assay type: binding
[2] = biological target: T1, HLA A2.1 molecule; assay: Stability of the peptide/HLA A2.1 complex (DC50) on T2 cells, flow cytometry; assay type: binding
Description: For each incubation time, the cells are then labeled, as indicated above, with the BB7.2 antibody, and analyzed by flow cytometry in order to evaluate the amount of peptide/HLA A2.1 complex present at their surface. […] The DC50 (dissociation complex: DC) is defined as being the time required for the loss of 50% of the HLA A2.1/peptide complexes stabilized at t=0.

[3] = tested on: RMAS-HHD targets loaded with peptide; assay: Immunogenicity: CTL generation in HHD transgenic mice, 51Cr lysis of peptide-loaded targets; assay type: in vivo; details: for immunogenicity (in words): HHD mice (also humans); for killing of RMAS-HHD cells loaded with natural peptide or its P1Y variant: CTLs induced in HHD mice sensitized with the natural peptide, FIG. 1; for percentage of HHD mice in which a CTL response is induced: mice sensitized with the peptide
[4] = HHD mice, 100 μg peptide s.c., responder: specific cytotoxicity >15% above unloaded targets
[5] = native peptides, relative affinity vs reference peptide HIVpol 589, lower RA = stronger binding
[6] = […], arrow in neighbouring cell gives direction
[7] = native peptides, time for loss of 50% of HLA A2.1/peptide complexes
[8] = native TERT peptides, reference peptide HIVpol 589
[9] = difference between DC50 of P1Y variant and natural peptide, arrow in neighbouring cell gives direction

Substance: AFHNVAREL [A9L]
- RA, P1Y peptides [1]: 7
- RA, Native peptides ([1]; HIV 1 peptides, […]): >100
- DC, P1Y peptides [2]: >6 h

Substance: ALCRWGLLL [HER-2/neu 5]
- Responders/total mice [3, 4]: 5/6

Substance: ALIHHNTHL [HER-2/neu 466]
- immunogenicity (in words) [3]: nonimmunogenic
- Responders/total mice ([3]; mouse, in vivo, sc): 0/6

Substance: ALVEICTEM [A9M]
- RA, Native peptides [1]: 5
- RA, P1Y peptides [1]: 1.75
- DC, Native peptides [2]: 2 h
- DC, P1Y peptides [2]: >6 h

Substance: AMLGTHTMEV [gp100 177, reference compound]
- RA [1, 5]: 0.5
- DC50 Y1-DC50 WT [2, 6]: 2 h
- DC50 [2, 7]: >6 h
- killing of RMAS-HHD cells loaded with natural peptide or its P1Y variant [3]: same efficacy
- Responders/total mice ([3]; mouse, in vivo, sc): 3/5

Substance: CLTSTVQLV [HER-2/neu 789]
- Responders/total mice [3, 4]: 4/6

Substance: ELVSEFSRM [HER-2/neu 971, reference compound]
- RA [1, 5]: >70.0
- DC50 Y1-DC50 WT [2, 6]: 2 h
- DC50 [2, 7]: 2 h
- Responders/total mice ([3]; mouse, in vivo, sc): 0/6

Substance: FLFWLMDTYV [mp 534]
- RA [1, 8]: 0.2
- DC50 ([2]; native TERT peptides): >6 h

Substance: FLLSLGIHL [HBV pol 575, reference compound]
- killing of RMAS-HHD cells loaded with natural peptide or its P1Y variant [3]: same efficacy
- Responders/total mice [3, 4]: 6/8

Substance: FLPWHRLFLL [Tyrosinase 207]
- RA [1, 5]: >50.0
- DC50 Y1-DC50 WT [2, 9]: >4 h
- DC50 [2, 7]: 2 h
- Responders/total mice [3, 4]: 0/6

Substance: FLSTLVHGV [mp 676]
- RA [1, 8]: 1.2
- DC50 ([2]; native TERT peptides): >6 h

Substance: GILGPVFTL [Flu M58, reference compound]
- RA [1, 5]: 0.2
- DC50 [2, 7]: >8 h
- Responders/total mice [3, 4]: 4/6

Substance: HER-2/neu 369Y1: P1Y variant of HER-2/neu 369 (YIFGSLAFL)
- percentage of HHD mice in which a CTL response is induced [3]: 100%

Substance: ILAKFLHWL [mhp 540]
- RA [1, 8]: 0.3
- DC50 ([2]; native TERT peptides): >6 h

Substance: ILATFLAWL [mp 530]
- RA [1, 8]: 0.8
- DC50 ([2]; native TERT peptides): >6 h

Substance: ILKEPVHGV [I9V, reference compound]
- RA, Native peptides [1]: 1
- DC, Native peptides [2]: 5 h

Substance: ILLVVVLGV [HER-2/neu 661]
- RA [1, 5]: >60.0
- DC50 Y1-DC50 WT [2, 9]: 2 h
- DC50 [2, 7]: 2 to 4 h
- immunogenicity (in words) [3]: non-immunogenic
- Responders/total mice ([3]; mouse, in vivo, sc): 0/6

Substance: ILTVILGVL [Mart-1 32, reference compound]
- RA [1, 5]: 21.1
- immunogenicity (in words) [3]: non-immunogenic
- Responders/total mice [3, 4]: 0/10

Substance: KLTGDENFTI [Tyrosinase 224]
- RA [1, 5]: >50.0
- DC50 Y1-DC50 WT [2, 9]: >2 h
- DC50 [2, 7]: <2 h
- Responders/total mice [3, 4]: 0/6

Substance: KLTPLCVSL [K9L]
- RA, P1Y peptides [1]: 0.7
- RA, Native peptides ([1]; HIV 1 peptides, […]): 1.35
- DC, P1Y peptides [2]: >6 h
- DC, Native peptides ([2]; HIV 1 peptides): >6 h

Substance: KTWGQYWQV [gp100 154]
- killing of RMAS-HHD cells loaded with natural peptide or its P1Y variant [3]: same efficacy
- Responders/total mice [3, 4]: 7/9

Substance: LLDDEAGPL [HBV pol 28]
- DC50 Y1-DC50 WT [2, 6]: >2 h
- DC50 [2, 7]: <2 h
- Responders/total mice [3, 4]: 0/6

Substance: LLDGTATLRL [gp 100 457, reference compound]
- RA [1, 5]: 1.6
- DC50 Y1-DC50 WT [2, 6]: >2 h
- DC50 [2, 7]: 2 to 4 h
- killing of RMAS-HHD cells loaded with natural peptide or its P1Y variant [3]: same efficacy
- Responders/total mice [3, 4]: 4/6

Substance: LLGCAANWIL [HBV pol 765]
- RA [1, 5]: 2.0
- DC50 Y1-DC50 WT [2, 6]: 4 h
- DC50 [2, 7]: 4 h

Substance: LLWKGEGAV [L9V]
- RA, Native peptides [1]: 3.1
- RA, P1Y peptides [1]: 1.3
- DC, Native peptides [2]: >6 h
- DC, P1Y peptides [2]: >6 h

Substance: MLGTHTMEV [gp100 178]
- RA [1, 5]: 0.3
- Responders/total mice ([3]; mouse, in vivo, sc): 4/6

Substance: MLLAVLYCL [Tyrosinase 1, reference compound]
- RA [1, 5]: >60.0
- Responders/total mice [3, 4]: 4/23
- percentage of HHD mice in which a CTL response is induced [3]: 17%

Substance: NLQSLTNLL [HBV pol 985]
- Responders/total mice [3, 4]: 0/6

Substance: PLEEELPRL [HBV pol 594]
- RA [1, 5]: 4.2
- DC50 Y1-DC50 WT [2, 6]: >6 h
- DC50 [2, 7]: <2 h
- Responders/total mice [3, 4]: 0/6

Substance: PLQPEQLQV [HER-2/neu 391]
- RA [1, 5]: >70.0
- DC50 Y1-DC50 WT [2, 6]: >6 h
- DC50 [2, 7]: 2 h
- immunogenicity (in words) [3]: nonimmunogenic
- Responders/total mice ([3]; mouse, in vivo, sc): 0/6

Substance: PLTFGWCFKL [P10L]
- RA, P1Y peptides [1]: 5
- RA, Native peptides ([1]; HIV 1 peptides, […]): >100

Substance: PLTSIISAV [HER-2/neu 650]
- RA [1]: 1.4
- RA WT/RA Y1 [1]: 6.0
- DC50 [2]: <2 h
- DC50 Y1-DC50 WT [2]: >4 h
- immunogenicity (in words) [3]: nonimmunogenic
- Responders/total mice ([3]; mouse, in vivo, sc): 0/6

Substance: PLVKLWYQL [P9L]
- RA, P1Y peptides [1]: 4.6
- RA, Native peptides ([1]; HIV 1 peptides, […]): >100
- DC, P1Y peptides [2]: <2 h

Substance: RLRDLLLIV [R9V]
- RA, P1Y peptides [1]: 5
- RA, Native peptides ([1]; HIV 1 peptides, […]): >100

Substance: SLADTNSLAV [gp100 570, reference compound]
- RA [1, 5]: 1.0
- DC50 Y1-DC50 WT [2, 6]: >2 h
- DC50 [2, 7]: 4 to 6 h
- killing of RMAS-HHD cells loaded with natural peptide or its P1Y variant [3]: same efficacy
- Responders/total mice ([3]; mouse, in vivo, sc): 6/9

Substance: TDQVPFSV [gp100 209, reference compound]
- DC50 Y1-DC50 WT [2, 6]: 2 h
- DC50 [2, 7]: 4 h
- Responders/total mice ([3]; mouse, in vivo, sc): 4/6

Substance: TLEEITGYL [HER-2/neu 402]
- RA [1, 5]: 19.0
- DC50 Y1-DC50 WT [2, 6]: >2 h
- DC50 [2, 7]: <2 h
- immunogenicity (in words) [3]: nonimmunogenic
- Responders/total mice ([3]; mouse, in vivo, sc): 0/6

Substance: VIYQYMDDL [V9L]
- RA, P1Y peptides [1]: 8.6
- RA, Native peptides ([1]; HIV 1 peptides, […]): >100
- DC, P1Y peptides [2]: <2 h

Substance: VLDVGDAYFSV [V11V]
- RA, P1Y peptides [1]: 2.5
- RA, Native peptides ([1]; HIV 1 peptides, […]): 4.5
- DC, P1Y peptides [2]: 3.5 h
- DC, Native peptides ([2]; HIV 1 peptides): 2 h

Substance: VLVKSPNHV [HER-2/neu 851, reference compound]
- RA [1, 5]: 24.0
- DC50 Y1-DC50 WT [2, 6]: 2 h
- DC50 [2, 7]: 4 h
- Responders/total mice [3, 4]: 1/12
- percentage of HHD mice in which a CTL response is induced [3]: 8%

Substance: VLYRYGSFSV [gp100 476, reference compound]
- RA [1, 5]: 10.0
- DC50 Y1-DC50 WT [2, 6]: 2 h
- DC50 [2, 7]: 6 h
- killing of RMAS-HHD cells loaded with natural peptide or its P1Y variant [3]: same efficacy
- Responders/total mice [3, 4]: 8/10

Substance: YLIHHNTHL [HER-2/neu 466Y1]
- RA [1]: 1.4
- DC50 [2]: 6 h

Substance: YLVPQQGFFC [HER-2/neu 1023, reference compound]
- RA (bound stated in text) [1]: > 5
- RA [1, 5]: 19.6
- DC50 [2, 7]: 4 h
- Responders/total mice ([3]; mouse, in vivo, sc): 5/10

Substance: gp100 177Y1: P1Y variant of gp100 177 (YMLGTHTMEV)
- percentage of HHD mice in which a CTL response is induced [3]: 75%

Substance: gp100 457Y1: P1Y variant of gp100 457 (YLDGTATLRL)
- percentage of HHD mice in which a CTL response is induced [3]: 75%

Substance: gp100 476Y1: P1Y variant of gp100 476 (YLYRYGSFSV)
- percentage of HHD mice in which a CTL response is induced [3]: 100%

Substance: gp100 570Y1: P1Y variant of gp100 570 (YLADTNSLAV)
- percentage of HHD mice in which a CTL response is induced [3]: 100%
